These results are taken from US20100136539A1.

The target in assay [1] is Ezrin (human) (UniProt P15311). The experiment in a line: Vidas sandwich ELISA, 1/50 Caco2 lysate; negative control as capture, detection 4G11B5-biotin.
Assay [2] concerns the target Ezrin (human) (UniProt P15311). Description: Vidas sandwich ELISA, 1/50 Caco2 lysate; negative control as capture, detection 4A7A6C1-biotin.

Sequence of UniProt P15311 (P15311 whole entry): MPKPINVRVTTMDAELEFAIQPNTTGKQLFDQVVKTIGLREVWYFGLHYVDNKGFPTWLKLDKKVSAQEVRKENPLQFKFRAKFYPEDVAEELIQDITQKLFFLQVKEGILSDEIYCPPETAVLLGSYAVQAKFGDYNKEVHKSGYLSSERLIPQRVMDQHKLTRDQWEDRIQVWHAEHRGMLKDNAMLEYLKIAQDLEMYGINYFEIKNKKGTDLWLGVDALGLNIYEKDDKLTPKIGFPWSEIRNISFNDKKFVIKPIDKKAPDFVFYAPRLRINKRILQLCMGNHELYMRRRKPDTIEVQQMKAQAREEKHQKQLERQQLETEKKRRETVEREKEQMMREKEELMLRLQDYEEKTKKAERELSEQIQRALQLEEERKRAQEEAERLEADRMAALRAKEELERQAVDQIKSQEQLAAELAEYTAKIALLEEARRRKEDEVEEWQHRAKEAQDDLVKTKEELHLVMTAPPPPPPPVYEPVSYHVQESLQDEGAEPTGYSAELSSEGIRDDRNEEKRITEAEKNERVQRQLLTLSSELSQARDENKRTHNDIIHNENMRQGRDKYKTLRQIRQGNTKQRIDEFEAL

In the case of Negative control, the figures for the Vidas sandwich immunoassay signal in assay [1] and in assay [2] were 2.5 RFV and 3 RFV, respectively.
